The nature of this series: soluble on expression in E. coli; label from the status in PepcDB or PDB records.
Regarding “MGSDKIHHHHHHMSGNESVVNYDHFIDKRRVRKAFERAAPLYDQAAVLQREVCDRMLSRLEYIKYMPDVVLDAGSGTGYGTCKLLERYPDASMLAIDIATGMHHQARQRMNSMIPRWRQLFGVGRNQRTSRVRYVAGDIEQLPLEDSCAGLVWSNLALQWCNDLKKTFDEMRRILKNGGLFMFSTFGPDTLKELRQAFRHADDYSHVNRFADMHDIGDMLVHSGFATPVMDMEYITLTYDEVISVMRDLKAIGAHNATGARHRGLTGKNAWQKAIGHYETLRTGGKLPATFEVVYGHAWKPAPRTSILTPETRRHIGLE”, the “soluble on expression in E. coli” value is given as “not soluble”.
On to “MSLRLEDIQAFLNVVELGSISAAAERMSLSKSVISKRVSDLERHLGVRLLYRSTRNVEPTEAGGFFYKSAKASLQDLNNAAESVALRENDLCGELRVMAPMSFGTLWLGPLVMEFMARNPRLEVVLQLDDRIVDFEKEGYDLAIRITRLQDSSLIARQLGTSRRVVCCSPEYLERHGPLQRIEDILCHPCIGYSHNTPSQLWSFEPRVAGEPARMITPRGRFNTNNGQTMRDAAVRGLGLAMLPLFIAAEDLAAGRLVEALPQERPLDDLIYAMYSRAATLSPKVKLFVQFLQQALGSPPWGVR”, for which the “soluble on expression in E. coli” value is reported as “not soluble”.
On to “MTKGKGRNPGASGLDKHLKRKTHLERSQPKSRQHLGQLEKHKDHVLRAKKRKVKVRRLQEIKRAAAQRNPDEFNIGMTKAVMDVANGRMRQRRVRLVESDRKKDMQTTIEHNRRNVQYLEFKAQADQQRATELLNEEAAAALTSTAPQNKHIVFVNSEEEFRSFNPLKHFDVTPEMMRQHPAVRGRIRVLEKTVMPEEILMSGGHQIKSAAQKRKERREVQEKMRRSGADATPETRAAFVERLRAKKELKQYQFTDLLEEVKRESEATASSSKGAPGDDGEQEEAAAQDEVTRLLEWRREQERQAAIATARHVREVGQRIQRSKSLSALAKSIRKQSQGIKRQMEQRRESRFKPGATRRAR”, for which the “soluble on expression in E. coli” value is given as “not soluble”.
As for “SYPSLFAPLDLGFTTLKNRVLMGSMHTGLEEYPDGAERLAAFYAERARHGVALIVSGGIAPDLTGVGMEGGAMLNDASQIPHHRTITEAVHQEGGKIALQILHTGRYSYQPHLVAPSALQAPINRFVPHELSHEEILQLIDNFARCAQLAREAGYDGVEVMGSEGYLINEFLTLRTNQRSDQWGGDYRNRMRFAVEVVRAVRERVGNDFIIIYRLSMLDLVEDGGTFAETVELAQAIEAAGATIINTGIGWHEARIPTIATPVPRGAFSWVTRKLKGHVSLPLVTTNRINDPQVADDILSRGDADMVSMARPFLADAELLSKAQSGRADEINTCIGCNQACLDQIFVGKVTSCLVNPRACHETKMPILPAVQKKNLAVVGAGPAGLAFAINAAARGHQVTLFDAHSEIGGQFNIAKQIPGKEEFYETLRYYRRMIEVTGVTLKLNHTVTADQLQAFDETILASGIVPRTPPIDGIDHPKVLSYLDVLRDKAPVGNKVAIIGCGGIGFDTAMYLSQPGESTSQNIAGFCNEWGIDSSLQQAGGLSPQGMQIPRSPRQIVMLQRKASKPGQGLGKTTGWIHRTTLLSRGVKMIPGVSYQKIDDDGLHVVINGETQVLAVDNVVICAGQEPNRALAQPLIDSGKTVHLIGGCDVAMELDARRAIAQGTRLALEI”, the “soluble on expression in E. coli” value is “soluble”.
Turning to “MGSDKIHHHHHHMQKSRPEQDVHEDIKILIQTHFGESGQGIHIEVKGDKVSLWGTVDSLAEKDFIGQRIGRIDGVKELDNSLTVANDGKITDKDIEKQVVERFAQSNFEEIMHLGCRASKGIVTLLGHLETQSSERLAKRIASQVRGVKEVRSEIDFLEKAVDDATLVNRVENALVASPWVNAHEIKTSARNGLITLTGMVNTQEEMEWAVDTAYQVPGVKAVVSEIFSRHRSQGEDLYMTEQLVRKLGQHGMTSQLVRAFVQDGIAYMTGEVYSDEDRRWAESMGQHVEGIKSINSSIKVAAHSSK”, the “soluble on expression in E. coli” value was “not soluble”.
Turning to “MSTRNSRSELEKTAVQLFRKLGTRTVLFHQAAAQALGLFPTDLKSADILNEAGPMTAGELGKKTGLSTGSVTALVDRLEKAGVCGSWKRTPNDRRRVVIVPLTASKKHIKDLFRPLSESTMDLCREYTEEELELIFSFVGKAADIMEEELERLKQ”, the “soluble on expression in E. coli” value is “not soluble”.
Turning to “MVTAREVGRIGLRKLLQRIGIVAESMTPLATDPVEVTQLLDARWYDERLRALADELGRDPDSVRAEAAGYLREMAASLDERAVQAWRGFSRWLMRAYDVLVDEDQITQLRKLDRKATLAFAFSHRSYLDGMLLPEAILANRLSPALTFGGANLNFFPMGAWAKRTGAIFIRRQTKDIPVYRFVLRAYAAQLVQNHVNLTWSIEGGRTRTGKLRPPVFGILRYITDAVDEIDGPEVYLVPTSIVYDQLHEVEAMTTEAYGAVKRPEDLRFLVRLARQQGERLGRAYLDFGEPLPLRKRLQEMRADKSGTGSEIERIALDVEHRINRATPVTPTAVVSLALLGADRSLSISEVLATVRPLASYIAARNWAVAGAADLTNRSTIRWTLHQMVASGVVSVYDAGTEAVWGIGEDQHLVAAFYRNTAIHILVDRAVAELALLAAAETTTNGSVSPATVRDEALSLRDLLKFEFLFSGRAQFEKDLANEVLLIGSVVDTSKPAAAADVWRLLESADVLLAHLVLRPFLDAYHIVADRLAAHEDDSFDEEGFLAECLQVGKQWELQRNIASAESRSMELFKTALRLARHRELVDGADATDIAKRRQQFADEIATATRRVNTIAELARRQLEHHHHHH”, the “soluble on expression in E. coli” value was “not soluble”.
Consider “MEYLFLRRKKTSSTSVRQKTLLYRAAGREWTARFSSLSDVRPADSLIYKGILYQLEIRRAFLDSSLSLKKLSMMLETNQTYLSNAVNRYFGCHLKELLNRYRVEYAKELLRNGGCPLGEVPSRSGFGSKSPFYLAFVRQTGMTPKRYAARERNLVNLEIENEVLL”, for which the “soluble on expression in E. coli” value was “not soluble”.
Consider “GPLGSPLIGEIGPETYSDYMSAGIPLAYIFAETAEERKELSDKLKPIAEAQRGVINFGTIDAKAFGAHAGNLNLKTDKFPAFAIQEVAKNQKFPFDQEKEITFEAIKAFVDDFVAGKIEPSIKSEPIPEKQEG”, for which the “soluble on expression in E. coli” value is listed as “soluble”.
Take “MPITNERKETIRVAKKLNKFIALPSMLNWKVHESDVLRRGRVLCMIRSKNFFFPDDISSLKMRMATVTKHGYLVLYESVDEGLVIDLRSATHILTECDKYKSERIKYSRSHVKVRLPRGNVHMFLRDDDISKWTAALLEAHVSFRPTAAARVVAKPRQQPSKNVETMTAIEPVEVMDSPTSPVTSSNSGLITVLERGVSSEDTLIPSVRRGVIPVNTLRYQIEKHLEMCTPASEQLSKSSDPNISSMYVFHQGIQVKQEPIDDDQEEEQQVQKQLVFKIEGSEDEEAVKKEWWLRSLRC”: the “soluble on expression in E. coli” value is listed as “not soluble”.
With “KNFPVLHLHREDFHDIRGTISLHLKTGFPMGFQMSVMCIGQLSMQTVVNSLGTAAVAGYTAASKADQLSVLVNNAMMTAISNYVAQNFGAGKRERIRQGVR”, the “soluble on expression in E. coli” value is recorded as “not soluble”.
Take “MGSDKIHHHHHHMAKAFASQGDMSEKKISFTEVGEGLYAFTAEGDPNSGVIIGDDSVMVVEAQATPRLAQKVIDCIREVTDKPISHVVLTHYHAVRVLGASAFGAGQVIMSDTARSMVVERGQEDWDSEFQRFPRLFEGHESIPGLTWPTTTFSDSMTVYLGKRRVDIMHLGRAHTAGDAVIHVPDQNVMFTGDIVEYHSACYCGDGHFNDWGNTLDNIAWFDVDAIAPGRGDALVGKEMVNAAIENTRDFVQSTYRPAARVAARGGSLKEAWDAVRAECDPKFADYAIYEHCLPFNVARAYDEARGIDTPRIWTAQRDLEMWEALQG”: the “soluble on expression in E. coli” value is given as “not soluble”.
For the sequence “MSNSAKLIDVITKVALPIGIIASGIQYSMYDVKGGSRGVIFDRINGVKQQVVGEGTHFLVPWLQKAIIYDVRTKPKSIATNTGTKDLQMVSLTLRVLHRPEVLQLPAIYQNLGLDYDERVLPSIGNEVLKSIVAQFDAAELITQREIISQKIRKELSTRANEFGIKLEDVSITHMTFGPEFTKAVEQKQIAQQDAERAKFLVEKAEQERQASVIRAEGEAESAEFISKALAKVGDGLLLIRRLEASKDIAQTLANSSNVVYLPSQHSGGGNSESSGSPNSLLLNIGR”, the “soluble on expression in E. coli” value was “not soluble”.
On to “MSLKAFLPLLFSFFFIISCQQHKEATISPIDEEDELQEEADSLPRATAIFWLDKYHMKELKKDDVLTFRTAKAKVVIRNDGTIDLLSFVEQQPGNAQRYIRYRLKDFKVKKILMDNGYINPGEQYVQLRYIPALARRVKEGHHHHHH”, for which the “soluble on expression in E. coli” value is given as “soluble”.
For “MSSEDRHLGSSCGSFIKTEPSSPSSGIDALSHHSPSGSSDASGGFGIALSTHANGLDSPPMFAGAGLGGNPCRKSYEDCTSGIMEDSAIKCEYMLNAIPKRLCLVCGDIASGYHYGVASCEACKAFFKRTIQGNIEYNCPATNECEITKRRRKSCQACRFMKCLKVGMLKEGVRLDRVRGGRQKYKRRLDSENSPYLNLPISPPAKKPLTKIVSNLLGVEQDKLYAMPPNDIPEGDIKALTTLCELADRELVFLINWAKHIPGFPSLTLGDQMSLLQSAWMEILILGIVYRSLPYDDKLAYAEDYIMDEEHSRLVGLLDLYRAILQLVRRYKKLKVEKEEFMILKALALANSDSMYIENLEAVQKLQDLLHEALQDYELSQRHEEPRRAGKLLWTLPLLRQTAAKAVQHFYSVKLQGKVPMHKLFLEMLEAKV”, the “soluble on expression in E. coli” value was “soluble”.
For “MSLQVFGVSRSGYYNWVQHEPSDRKQSDERLKLEIKVAHIRTRETYGTRRLQTELAENGIIVGRDRLARLRKELRLRCKQKRKFRATTNSNHNLPVAPNLLNQTFAPTAPNQVWVADLTYVATQEGWLYLAGIKDVYTCEIVGYAMGERMTKELTGKALFMALRSQRPPAGLIHHSDRGSQYCAYDYRVIQEQFGLKTSMSRKGNCYDNAPMESFWGTLKNESLSHYRFNNRDEAISVIREYIEIFYNRQRRHSRLGNISPATFREKYHQMAAEGHHHHHH”, the “soluble on expression in E. coli” value is reported as “not soluble”.
Consider “MSLTARSVVLSVLLGAHPAWATASELIQLTADFGIKETTLRVALTRMVGAGDLVRSADGYRLSDRLLARQRRQDEAMRPRTRAWHGNWHMLIVTSIGTDARTRAALRTCMHHKRFGELREGVWMRPDNLDLDLESDVAARVRMLTARDEAPADLAGQLWDLSGWTEAGHRLLGDMAAATDMPGRFVVAAAMVRHLLTDPMLPAELLPADWPGAGLRAAYHDFATAMAKRRDATQLLEVTEGHHHHHH”, for which the “soluble on expression in E. coli” value was “soluble”.
Regarding “MSDRKPVRGRHQARKRAVALLFEAEVRGISAAEVVDTRAALAEAKPDIARLHPYTAAVARGVSEHAAHIDDLITAHLRGWTLDRLPAVDRAILRVSVWELLHAADVPEPVVVDEAVQLAKELSTDDSPGFVNGVLGQVMLVTPQLRAAAQAVRGGA”, the “soluble on expression in E. coli” value is “soluble”.
Consider “GPGSMSSEHGEILRLWEKLRTIEDRTEEQVAMPSSKKTAYAHKYPMVDKLMHLIEPKFANLVRTPSVSRVVQSMIKYGSAEQVNRLLKWVSKDFSTYATDAYAHFVVCALVRHVPHEAYSKLMTHVIPSVPQLVAHKFGIEVLHSVYSSRWCSPADRSLLLLAVFKDNVAVMRRWPGYPEVEAVLKKNPSLQRRLLSRLFDLSDKLVSQKEAIGYPFVQRLVGTYVRCGTRDEVSELCDTLRPHITAISATREGAPLASLAFSLTEPKKRKEVLHSFNAQLGELCTSKYAAPVIARLFDLLYDAQMLRKYVASDLAEHIGQVVNSPYGYQILMHLLTPHEERKRRFLLPNWQEHNLFSMENKEWNHHTWLTPAFVPETVEICSKPAVTSHLAALPMLVKAFLQYVTDEAHSAKLNRHHAALIAREVLHVVQHEPLYKAAIQLSEDEEHALSKLAPAHGKREREDAAGEVETYAAAPTKCPKRENGSQKAAALTPADKRKKTKVPTVISAAAPLEGRRVKTDAKKRVKKS”, for which the “soluble on expression in E. coli” value is “soluble”.
“AASSAQCDFGGPFQAYKSVNGPGNGGYYLRKTTKPGTPECAYVLVPQNTLSEGQSTSFTYGKLQNGQMIQLTATVTVNGDKIEVTGAGQDLSGTTTVLFSDYRSCDVMRGPDGNYELWVHSSAINLQSYGCCDTKFAQVAGGRPIHHTWQTYCPPLP”: the “soluble on expression in E. coli” value is recorded as “soluble”.

Source of the values: the DeepSol protein solubility set.
